Test [1] has as its target GST-Exo70p (yeast, UniProt P19658 1-623). Briefly: pull-down.
Test [2] deals with T1, GST-Bem1p (yeast, UniProt P29366 1-551).
T1 sequence (looked up): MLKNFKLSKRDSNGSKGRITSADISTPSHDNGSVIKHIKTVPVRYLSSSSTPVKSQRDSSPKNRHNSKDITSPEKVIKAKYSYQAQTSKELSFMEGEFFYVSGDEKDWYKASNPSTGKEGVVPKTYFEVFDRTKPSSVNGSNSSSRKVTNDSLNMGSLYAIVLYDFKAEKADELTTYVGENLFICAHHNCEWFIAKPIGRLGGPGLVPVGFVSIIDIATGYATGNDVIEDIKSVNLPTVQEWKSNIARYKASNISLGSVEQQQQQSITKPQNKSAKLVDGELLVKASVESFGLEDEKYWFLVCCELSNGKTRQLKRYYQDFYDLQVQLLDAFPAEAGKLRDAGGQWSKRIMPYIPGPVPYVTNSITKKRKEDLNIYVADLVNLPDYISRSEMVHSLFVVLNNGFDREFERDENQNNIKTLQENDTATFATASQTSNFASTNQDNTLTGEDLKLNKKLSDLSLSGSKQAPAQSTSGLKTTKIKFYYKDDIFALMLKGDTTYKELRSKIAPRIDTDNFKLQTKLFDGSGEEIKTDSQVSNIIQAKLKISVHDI
As to the kind of experiment: pull-down.

GST-Exo70p, sequence (P19658 whole entry): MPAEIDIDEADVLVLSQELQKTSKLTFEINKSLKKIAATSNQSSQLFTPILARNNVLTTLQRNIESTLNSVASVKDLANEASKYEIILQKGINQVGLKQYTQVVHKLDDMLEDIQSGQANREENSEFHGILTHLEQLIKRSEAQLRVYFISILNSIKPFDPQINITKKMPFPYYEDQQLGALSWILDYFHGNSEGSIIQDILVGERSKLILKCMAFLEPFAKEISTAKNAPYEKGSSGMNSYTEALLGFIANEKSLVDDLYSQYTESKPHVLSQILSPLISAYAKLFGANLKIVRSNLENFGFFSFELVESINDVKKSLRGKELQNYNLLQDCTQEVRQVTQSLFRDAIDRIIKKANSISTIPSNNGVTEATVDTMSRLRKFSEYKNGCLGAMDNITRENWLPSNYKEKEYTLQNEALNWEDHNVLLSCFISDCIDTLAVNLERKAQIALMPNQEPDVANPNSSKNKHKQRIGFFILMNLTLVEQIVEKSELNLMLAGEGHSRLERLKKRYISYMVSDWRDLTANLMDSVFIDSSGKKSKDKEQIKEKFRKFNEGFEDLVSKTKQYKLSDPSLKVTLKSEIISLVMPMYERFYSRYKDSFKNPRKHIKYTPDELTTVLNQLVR

B1: Bem1p-His6 (natural protein, yeast, UniProt P29366 1-551, looked up)
chain: T1 sequence (looked up)
Take B1: the Kd – broadly, the constant that tells how readily two partners part at equilibrium – in test [1] is about 260 nM.

B2: His6-MBP-Cdc24^781-854p (domain or fragment, yeast, UniProt P11433 781-854, looked up)
chain: FTLLVEKVWNFDDLIMAINSKISNTHNNNISPITKIKYQDEDGDFVVLGSDEDWNVAKEMLAENNEKFLNIRLY
In the case of B2, the binding result in test [2] is “binds”.
